In the NTF2 design screens of Basanta et al. (2020):

Assay: protease stability score; higher = more stable; yeast display proteolysis, trypsin and chymotrypsin;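 further: relative to predicted unfolded state with 0 unfolded-like and 1 meaning tenfold more protease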

DETFKEQEKLIERLERVERTGDWKEWERLADPNVRMDIDGVEIIGMEMVTEFILREMRHLGVTRIRIEIKEIRVIGDKIRIDGQIQQGNKETRFILIVSKIDGRWRLEESYVH
protease stability score: 1.06

DETHEEHNRFAEEYVHALHTGDEDRLRELMDPNVRFILIIDGKEVRLHGWELLLRVIREFWERFKNIRIFIRDIDLQGEKIRLETEVNVDGVDEHWRINMVVVNGRIKSLIIEQR
protease stability score: 2.32

DETHELIEFLLKEMIEAWKTGNEEKIMELFDPNVRLDIGDKHYHGREEVVRAMHEYRRRLGAKHITLHDHSVVNGVIHIDTVVNQGDKEVTIHIHIHIVDGKIKRIEIRLK
protease stability score: 2.07

DETHEMNEEFLRLLIHAWRTGDEDLLLHLADPNVKVNVGEFHHHGREKFSEWLKHIRFDDMRVHDMRIFDGVAHFITESDVTFNGRRRRVHVRIVVEKVNGKWRLKLFEEE
protease stability score: 2.66

DETHKDAERALEIEIRDFVTGDFKSMQRLADPNVKIEVGDKHWHGREEFEKLVKEVIDQFPNMRLDVRVTHWELQGEKLIMRTEVNEHFDGVTFKHETHIIIRKINGRWFLTSVHIQ
protease stability score: 1.36

DETHKLLEDLTRLFWELTHTGDEEIVEELADPHVRSEINGKERHGREEHVKAWREWRIERMTLRSVSVINGQMSIDGEIVLKIGDKRIETRIEIRIHIVDGVMKSVKIHLE
protease stability score: 0.937

DETHRDMEEALRLFVRLLETGNEEILSKLVDPHVKIDFENHQHIGMEDWMKFMHHIRLDSMRIDDFKLIGDKARSDTTLDGNVNGRHFKFKTWIVAQKVDGRWLEHSVEYR
protease stability score: 0.885

DETHVQMERFIEEHIKSHITGDEDYLRENIDPEARVVIDGQTYHGWKAIKDAIDQWRVTDMRIRHVRVQGEKVDIHGRLHVDVNGRNIDLEVRIIVTKVDGRWVVDQLIFN
protease stability score: 1.16

DETKDDSDWAVELWEKLFKTGDEHLHERLADPHTRKEVGDKEFHGRELILKQFVEFVEKVKNIQLEFTHVKEQGEKVEMDTTLRIDGVRIRTKMIALKIDGVWLVKIIHIE
protease stability score: 0.964

DETKEAFDRAIEKLSRWMFTGDEDKVDHLMDPDVRIEQGDKELHGMEDARRYLTEIRVKVRDMKITHMRIYDGRIDIDGETHLEVKVGDKHLHIDTRVYIDSYKVDGRWFFHEIRIK
protease stability score: 0.98

DETKEAIDRLFEVIHRMMITGDEHEFMKLVDPNVKVIQGEKIYHGREVIVNMLREILKWAGVENIQSHLDPERVHIQGDKLLVRGRLELRIGDKSEERDVEFVVVKVDGRWLIRVWKIE
protease stability score: 2.74

DETKEDTNRWIEHELRALKTGNWKEQFKNLDPNVRMHLHVGDKNKDLHGREKVTTELRRLFEEFGIKHIHLTNFEVQGDKIHLIMHIEVDGRHIELHLIVTKIDGKWHMESIEMHFR
protease stability score: 0.866

DETKEHVHNWMELVVHWYETGDEEEILKNADPNVRTIFNGVDYHGWEHLEEILKKIRHFFKNARVEIERIEIQGDKLILDVNVEINGQRDTLHIHVKVVDGVMKNLEIRHG
protease stability score: 1.59

DETKEKVRIALELLETLHRTGDEDKFLELADPHYQLHINGQTVIGRETIYELLVRFLHHLGATSEVRIRSVDWQGDKIIVDMRLHFRVGDKSFEIQVHIYILKVNGKWLIESIEIR
protease stability score: 1.68

DETKEQSDEFIRIWVKARRTGDEHKLRRLIDPNVRVLINGKDLIGMDRALEIIEMFRKEFGIDHMHFTVRHVDIFNGVAISDFKVEINFNGREHEFTTHLVNLKIDGVWHTHSMEFH
protease stability score: 0.546

DETKEYAKEMFEILKESLETGDWKKIRHLADPNVRLHIGEFEHHGWKEFIHFFREFLHHLRLEDVETKHIEVQGDKMILRTTLHLRQGDKSRDLDVIIIYRKIDGRWMLHSVEIR
protease stability score: 1.4

DETKHHHDRLFEEEAKAIATGDWEKLKELLDPHVRFEVGNKEIHGMETVLEEIERDLKRLGVTKQEVRIVIDKVDIQGEKIVSDFTLRLHFDGVTIEHKVHVIEVKIDGRWLIQSIRIE
protease stability score: 1.53

DETKQETDRLVKMMLHAITTGDEKFIHHLIDPNVRLEVGDKSFHGREDAFEMLRKEWEDLGVKVYKPETYKSQGDWVHFHGKEHVGDKEIELNIHIHVVDGKIKFIRIEIH
protease stability score: 1.2

DETNKTLKEVFRELVHSLFTGDEERLTELADPHARFHQGEKELHGREEISKEMSRMIERADHVKIILTHMEVQGDKIIIEGHLEIRVDGRRIDVSTTLILHKVNGRWFITEIHII
protease stability score: 0.241

DETQELAEEIVRKMIENWLTGNEEELHKMADPHVRVHINGVDLHGREVWEKWVHDELEKIPGIRREFELKRLEIYGDYIDIDGILILTFNGRKHTHKVRIHLHIVDGKLHRLEIRNK
protease stability score: 1.28

DETREESYEFLWKLIHNWQTGNEDRLDELIDPHVRLVVGDKNHHGREELIELIREILERADHLRMRMRHFRVQGDKAEVDTRLQMEIGDKSIDTETHVRIIVVDGRVKYLEYEIK
protease stability score: 0.459

DETREEVYEMAVRILENEITGDWKKLYDLVDPDTRLDINGRHVIGREEMIKLFEWWLKHIRIKEIRLSHVEAVNGKADLKSNVHGTIDGVEHDVRRTIHIDIVDGRVKRIEVRTR
protease stability score: 1.29

DETREHTEHIMNIILHALHTGDEHLIRDMIDPHVRWELIIDGQTHNHIGRDEWEKLLEELGIDRIEVILKRFRIFENHSEVKGTIHINGKDADVVIYILVINGKIKEIRIIHV
protease stability score: 2.19

DETREIAIKMIELWIHAVKTGDEDRMTELLDPNALLIIGDKKIHGRENLLRFWKRIDHHHLRHIEIKEITFFNGQVEDDGIVEEELRVNGREFEIDSRVLYILKKVDGRWIMRTIEVK
protease stability score: 1.88

DETRELLDRLWERLVKALRTGDEDHVHDMLDPHVRIEIGDKILHGREALEVLWKRIDHISIHDFKLKRERRFENRIEVDGEVDGIVRIDGRENRHVTDTHYILVKIDGQWLIKTIHIK
protease stability score: 2.29

DETRETLERFWHILVRAEKTGDERIFYEMLDPNAQLNVNGRTFHGREILVKIFHEWRVHDSEIREIDIQGDKVDMHVHSDIQVGDKRIRTDMRIIMVKIDGKWLIRTLKVE
protease stability score: 2.16

DETRRHTEELFHWLLRAFMTGDFKLSYDNADPDVRFIINGRRDHGRDLYVRDLRHMRVHDSKVNHIHFEFQGDWAVVRVDGHIFGEYDGQHFNLRVEIRIIINKIDGRWSLESVEIRIH
protease stability score: 0.812

DETSREEEEHARLWTHAWLTGDEELFKKLADPHVKTEIDGRDLIGRDEMTRMFHDLLRELGVKHSTIEEIHIVNGRVEIRISIEVDGRPIKVRIHVEFFNGRVQRIQIRYE
protease stability score: 0.903

DETTDEMDKSLERFLDVVRTGDEHEDVHLADPHARIEFENRDIHGMKEHASQRIRVMLKFGWEVHIKFRHLRQVDGRLDVRLELRIKFDGVLYHLDTNEYWRKFDGRWVLDSMEFH
protease stability score: 1.24

DETTEDDRRRYEEFLMAEITGDFHLVEKLHDPDVRFVLVIGDKIHIHHGREDVRKWIEHDFRKFKNARIELHDVKAYDGRVEIHGRVQVDGVRFDVHITIIIINGRVKEQRLNIR
protease stability score: 2.12

DETTEHMVHFFKETLHAIRTGDFKAQEELFDPNARVDVGDYKFHGRETISEWLRRRNEQLGFKHIEIRINHVEYINGKISVIGSVDSDINGVRIRHERREEYVVINGVLTLVRLEHR
protease stability score: 1.12

DETTEHVRKLTELLLRSWVTGDEETDEKMADPNVRIIFEGREVHGMHWFSRVVKELRIEHVQIHDERFKVFEGRAEMRVDTHLRGTQGNYHDERKVRVEIHIIKVNGRWHLETIRVSVH
protease stability score: 1.21

DETTEIQEKLAKELMRLLLTGNEEEIMKNADPDVREHVLVDGKHINNIGREEVHRVRRELLEKVKNLRIRINRVEIQGEKVRMETTLHIDGQDIHVIYIFIIINGRIKEVHIEIR
protease stability score: 0.708

DETTEKNERYIERLHHYLETGNEEELLHLFDPNTKFVQGDKEIIGREEVRHWEEEKRRKMGIKHWDFEFRRVRIIGEKLIIHGKEIINFENHRLERTVEIHLLLIDGRVKEVVYHVN
protease stability score: 1.2

DETTELAREAIELLVKSLRTGDWDTSSRLLDPHTRYHYGEFNSHGREMFIISLEFLWKHLRIEDVHITHIRSIGDKVDVDTVLRVNVNGQVVDVEFFIHAHKVNGKWLYTEIRVR
protease stability score: 1.16

DETTELTQTVSQVFLDIWRTGDEDALRHLADPNTRLEVGEKTFHGRERVTEYVSRFKNVTVHLRRVTVQGNKVHIDSEMDFNGRKSDLHVELLVVDGRLKEIHVDIRWL
protease stability score: 1.84

DETTELVHEVWRVHLESLMTGDFDKFHELADPNAKVDVHYDGRRDDNHGREKLSHQIKRILQEWRVTIRINREDAIGNKLHVDSDLRVNYDGVEIRVRLLSIIVVVNGRFKSIEYHVL
protease stability score: 1.29

DETTELVHRLIELFLNSLHTGDEKTMVKLADPHARVEVRINGRKEEYHGMEHWSEHLIRRLEHLRIEIRIHDMQWFEGHAQVHTELIVRYDGKEMRTSVQVHLFIVNGRFKSSIVIIH
protease stability score: 1.05

DETTETLLRISESNIRNWETGDFDTIKQLLDPHVRMEQGDKTNHGRERVAKSWTEFLRELRLKTVHLHEVDVQGEKALSHVILFVKIGDKKIEVEAHLLVVVIDGKVSSIHITIK
protease stability score: -0.305

DETTHELEWFTKIVAHAIETGDFEVMLNLIDPNVRVQEIIDGREIEFHGWHAFEHWMRKFKNITIIIRHVHHQGNKVEIEGEIDFNGKRRDVRIRFHVWNGRVKEFRHEER
protease stability score: 1.52

DETTKLTEELLRLIWEVLITGDEHLFERLADPHVRVDEIYGDKRIELHGRERVSTRLHELRIKRVELKEIEVFNGRSHANTHVNGHIDGVTFRSDTRWEFVMIDGKLEEVRRKIE
protease stability score: 0.597

DETTKLVEEVTRLLERAWETGDEETIYQLLDPNVKWNINGVDFHGMEHLAREIIHELRRHGFRVRFRLHHIDIQGDKARVESIEHIHIGNKHIHRRTYLFLSKVNGVWSIQEQRVE
protease stability score: 1.44

DETTQYIREILEIMRRTFHTGDFDTMLELMDPHARIVIGEKDEHGWEAAHHQMEYLLREWRIHDVEIRDVELQGDKIRVKLIVTGRIGDKLTLIDVELHVLKVNGKWYLKEISIR
protease stability score: 1.19

DEVDDEVDKMLEFVLDSWETGDEHINRDLMDPNVLVEAENRTLIGREWAEEFLHSIKKRFPNMRVQLHDMRVVGDKVELDTELRYGEYHNRTHIIALKVNGKWLVEKVHFH
protease stability score: 1.13

DEVDEDEKHALHLLEHSIKTGDERMITEMMDPRYRLIINGQEFHGRELWIELWQRIKNIRINDVKFEELRVVGNKLRVRVHLDVQIGDKRYILDTEIVAVKVNGRWLNEEIIIR
protease stability score: 1.39

DEVDHMIELVTRLFIHAVLTGDEKILRDLMDPHVRVHVDGKKLHGWKEFIDWLREELERYDHFHFRVHHYNVVNGRVHADGNLDVHFNGRKHHITTDLRLIIWDGRIKTVDIRHH
protease stability score: 1.75

DEVEELAKRLLEELIHALETGDFDHNRHLLDPNVRIVIGEKDHVGWREVTKALRHMGIDHIHVRIHRIEVQGDKVHTESSVEMDINGKKLEFDTWLILRKVNGRWLFHSIEIR
protease stability score: 1.44

DEVEELIEENRRFFEESWMTGDEDSLRKNADPNVRLKVGEFHLIGREAFETWARQAVHMDSIEIHHMHFFDGVVHSITHFDGKFNGRKERHSIYLVELKVNGRWLNHEIRLK
protease stability score: 0.511

DEVEENAIRIAEDMLNNVLTGDEHLLRQLLDPHVRFILIVGDKTYTWHGREDFLEWLRKRLKQIDHEHIIIRDIKVVGDKAHIDGELHINVNGRTEDTRVHWDILVINGRIHKIRIIIH
protease stability score: 1.38

DEVEERMKRIVKHFVSAVLTGNFRHMEQLFDPNYKHRIEIGDKIVNLHGWEAVVKWIEEEWRRFDHVEIRIRDMDVIGNKSEVHGDLHLKAENHTLEIHVIEHFFIVNGKLHHIEKTHH
protease stability score: -0.007
